Columns and labels:
pspf_ecoli pspF [1] = target: pspf_ecoli pspF (UniProt P37344)
pspf_ecoli pspF [2] = target: pspf_ecoli pspF (UniProt P37344); remark: listed apart in the source

pspf_ecoli pspF, sequence (P37344 whole entry): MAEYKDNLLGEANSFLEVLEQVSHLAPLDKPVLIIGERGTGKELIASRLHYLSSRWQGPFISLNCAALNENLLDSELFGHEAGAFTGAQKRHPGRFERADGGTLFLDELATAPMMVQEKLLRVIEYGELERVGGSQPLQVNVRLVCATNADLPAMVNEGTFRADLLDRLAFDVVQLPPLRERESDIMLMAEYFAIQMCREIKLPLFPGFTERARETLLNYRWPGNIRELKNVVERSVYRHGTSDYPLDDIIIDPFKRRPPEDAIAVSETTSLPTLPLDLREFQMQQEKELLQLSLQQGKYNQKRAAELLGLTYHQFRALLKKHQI

Row | Substance | effect of a mutation on the interaction (pspf_ecoli pspF [1]) | effect of a mutation on the interaction (pspf_ecoli pspF [2])
1 | Phage shock protein A (Escherichia coli (strain K12)) (from UniProt P0AFM6) E37A | decreasing interaction strength | with no effect
2 | Phage shock protein A (Escherichia coli (strain K12)) (from UniProt P0AFM6) R59E | with no effect | 
